In patent US20240254202A1 (CONSEJO NACIONAL DE INVESTIGACIONES CIENT FICAS Y T CNICAS …, published 2024):

Target: Spike protein of wild-type virus B. 1.499, hCoV-19/Argentina/PAIS-C0102/2020 (Andina Strain) (SARS-CoV-2)
Test: cell-based or functional assay

B1: NbCoV_39 (VHH)
VHH: QVQLQESGGGLVQAGGSLRLSCAASGRTFSSTAMAWFRQAPGQEREFVATISWSGDNTKYADSVKGRFTISRDNAKNTVYLQMNSLKPEDTAVYYCAADPGNFGVPIEYFMFDYWGQGTQVTVSS
notes: also called Nb 39; 39A
wildtype VN assay on Vero cells, neutralizing activity: 0.4 µM

B2: NbCoV_43 (VHH)
VHH: QVQLQESGGGLVQPGGSLRLSCVASGSIGSINHMAWFRKPPGKERELVASITLAPDEIAYYADSVKGRFAISKGNAQPTLYLQMNSLKPEDTAVYYCHFRQIRANAHDVYWGQGTQVTVSS
notes: also called Nb 43
wildtype VN assay on Vero cells, neutralizing activity: 0.1 µM

B3: NbCoV_104 (VHH)
VHH: QVQLQESGGGLVQPGGSLRLSCAASGSIFRVMGWYRQAPGKEHDLVATITRSGDTNYADSVKGRFTISRDNTKNTVYLQMNNLKPEDTDVYYCYARNFVGHNPDVWGQGTQVTVSS
notes: also called Nb 104
wildtype VN assay on Vero cells, neutralizing activity: 0.3 µM
